pKd: −log10 of the molar value.
Columns and labels:
[1] = target: CREB-bZIP (bZIP domain of human CREB1, residues 277-339 of CREB-A) (human); assay: stopped-flow intrinsic tyrosine fluorescence, urea refolding kinetics
[2] = target: CREB-bZIP-L318V (human); assay: other fluorescence titration
[3] = target: CREB-bZIP-L318V (human); assay: stopped-flow fluorescence out-competition
[4] = target: CREB-bZIP-L332V (human); assay: other fluorescence titration

Substance: CREB-bZIP (bZIP domain of human CREB1, residues 277-339 of CREB-A) (domain or fragment)
- pKd [1]: 8.24
- koff [1]: 0.029 s⁻¹
- kon [1]: 1e+07 M⁻¹ s⁻¹

Substance: CREB-bZIP-L318V (domain or fragment)
- fold increase of Kd,M-M against CREB-bZIP [2]: 1000 fold
- k+,M-M.CRE (association of a monomer with CRE-bound monomer, inferred) [3]: 5e+09 M⁻¹ s⁻¹
- k-,M-M.CRE (dissociation of a monomer from the CRE-bound dimer) [3]: 0.079 s⁻¹

Substance: CREB-bZIP-L332V (domain or fragment)
- fold increase of Kd,M-M against CREB-bZIP [4]: 100 fold

Source: publication doi:10.1101/2025.08.25.672131
